Test results published in patent US5633227, “Secretory leukocyte protease inhibitor as an inhibitor of tryptase” (Miles, Inc., dated 1997).

Assays:
[1] = molecular target: T1, bovine trypsin (bovine, UniProt P00760); assay: GPK-AMC enzyme inhibition assay, Dixon plot, bovine trypsin
Experimental: (§1) Inhibitory activity against tryptase and bovine trypsin was measured using Gly-Pro-Lys-aminomethylcoumarin as a substrate. The reaction was performed in assay buffer that consisted of 0.1M Tris (pH 8.0), 1 µg/ml heparin, 0.02% Triton X-100, with 20 mM CaCl_2 included only in the trypsin assays. The amount of coumarin produced was determined by measuring the fluorescence (ex=370 nm, em=432 nm) on a Perkin-Elmer LS-50B fluorimeter. To measure tryptase activity, 12 µl of a 1 nM solution of tryptase (tetramer) was incubated with either the N- (34 to 650 nM final) or the C-terminal (7–150 nM final) domain of SLPI in 1.0 ml of assay buffer for 5 minutes at 37° C. The reaction was started by the addition of the substrate GPK-AMC (20 or 40 µM final) and the increase in fluorescence was measured over a 2 minute period. In order to measure trypsin activity, 3.3 µl of a 10 µg/ml solution was incubated with either the N- or C- terminal domains of SLPI, and assayed using both 10 and 20 µM GPK-AMC. To determine K_i values, Dixon plots of the form 1/V vs [I] were constructed. These are shown in FIG. 8, and the results are listed in Table V. The K_i values for the inhibition of the tryptase catalyzed cleavage of GPK-AMC by the N- and C-terminal domains were determined to be 290 nM and 4.8 nM, respectively (FIG. 8).

[2] = molecular target: T1, bovine trypsin; assay: GPK-AMC enzyme inhibition assay with bovine trypsin
Experimental: as §1

Ki [1] [nM]	binding result [2]	Binder
130	–	C-terminal domain of SLPI (amino acids 50-107) (other) PVDTPNPTRRKPGKCPVTYGQCLMLNPPNFCEMDGQCKRDLKCCMGMCGKSCVSPVKA
> 1800	no binding (tested: 1800 nM)	SGKSFKAGVCPPKKSAQCLRYKKPECQSDWQCPGKKRCCPDTCGIKCLD (other) [N-terminal domain of SLPI (amino acids 1-49)]
